Experimental data taken from the Human Domainome abundance scans (Beltran et al. 2025).
± gives the uncertainty stated by the source.

B1: Steroid hormone receptor ERR2, residues 100 to 176; numbered along this chain, O95718 (parent)
chain: KRLCLVCGDIASGYHYGVASCEACKAFFKRTIQGNIEYSCPATNECEITKRRRKSCQACRFMKCLKVGMLKEGVRLD

Variants of: B1
Assay: abundance fitness (aPCA) (normalised: wild type 0, dead -1); higher = more abundant; growth selection in yeast, the domain comes from the species named
Details: Homo sapiens
In the case of G13A, the abundance fitness is reported as -0.751 ± 0.17. In the case of G13L, the abundance fitness is reported as -0.743 ± 0.12. G13P gave an abundance fitness of -0.393 ± 0.18. With G13V the abundance fitness was -0.38 ± 0.09. G13H gave an abundance fitness of -0.759 ± 0.46. Y16N gave an abundance fitness of -0.093 ± 0.069. Work on Y16Q yielded an abundance fitness of -0.366 ± 0.078. Y16W showed an abundance fitness of -0.103 ± 0.074. Variant Y16C has an abundance fitness of -0.213 ± 0.077. With Y16D the abundance fitness was 0.008 ± 0.054. For Y16S, the abundance fitness was -0.276 ± 0.05. Y16G showed an abundance fitness of -0.08 ± 0.045. Y16V showed an abundance fitness of -0.115 ± 0.041. Work on Y16I yielded an abundance fitness of -0.342 ± 0.087. Y16T showed an abundance fitness of -0.418 ± 0.059. For Y16M, the abundance fitness was -0.239 ± 0.074. Work on Y16L yielded an abundance fitness of -0.332 ± 0.046. With Y16K the abundance fitness was -0.315 ± 0.084. Variant Y16P has an abundance fitness of -0.355 ± 0.067. For Y16H, the abundance fitness was -0.378 ± 0.14. Work on Y16E yielded an abundance fitness of -0.06 ± 0.055. Variant K1R has an abundance fitness of -0.286 ± 0.074. With K1N the abundance fitness was 0.031 ± 0.12. For K1A, the abundance fitness was -0.34 ± 0.12. Variant K1V has an abundance fitness of -0.334 ± 0.087. Variant K1F has an abundance fitness of -0.641 ± 0.23. K1C showed an abundance fitness of -0.432 ± 0.16. Variant K1M has an abundance fitness of 0.013 ± 0.074. Work on K1L yielded an abundance fitness of -0.67 ± 0.18. Work on K1E yielded an abundance fitness of -0.128 ± 0.07. K1T showed an abundance fitness of -0.177 ± 0.08. In the case of K1D, the abundance fitness is reported as -0.089 ± 0.092. In the case of K1I, the abundance fitness is reported as -0.45 ± 0.27. Variant K1W has an abundance fitness of -0.387 ± 0.099. Work on K1Q yielded an abundance fitness of -0.346 ± 0.14. Variant K1S has an abundance fitness of -0.295 ± 0.1. K1G showed an abundance fitness of -0.386 ± 0.071. K1H showed an abundance fitness of -0.525 ± 0.29. L3F gave an abundance fitness of 0.284 ± 0.077. For L3A, the abundance fitness was -0.047 ± 0.048. With L3W the abundance fitness was -0.446 ± 0.066. Variant L3C has an abundance fitness of -0.373 ± 0.11. L3R gave an abundance fitness of -0.152 ± 0.042. With L3V the abundance fitness was -0.036 ± 0.047. Variant L3T has an abundance fitness of -0.025 ± 0.054. For L3H, the abundance fitness was 0.133 ± 0.072. L3G gave an abundance fitness of -0.118 ± 0.041. For L3P, the abundance fitness was -0.372 ± 0.083. L3Y gave an abundance fitness of 0.219 ± 0.085. L3Q showed an abundance fitness of -0.055 ± 0.062. Variant L3E has an abundance fitness of -0.048 ± 0.052. L3M showed an abundance fitness of -0.1 ± 0.073. Work on L3N yielded an abundance fitness of 0.179 ± 0.07. L3S showed an abundance fitness of -0.062 ± 0.053. Work on L3I yielded an abundance fitness of 0.319 ± 0.087. G17L showed an abundance fitness of -0.601 ± 0.068. G17K showed an abundance fitness of -0.477 ± 0.092. In the case of G17E, the abundance fitness is reported as -0.027 ± 0.071. Variant G17P has an abundance fitness of -0.416 ± 0.093. For G17A, the abundance fitness was -0.075 ± 0.045. In the case of G17F, the abundance fitness is reported as -0.551 ± 0.26. For G17D, the abundance fitness was -0.091 ± 0.11. For G17H, the abundance fitness was -0.356 ± 0.19. Work on G17Q yielded an abundance fitness of -0.748 ± 0.11. Work on H15W yielded an abundance fitness of -0.1 ± 0.066. With H15Q the abundance fitness was -0.097 ± 0.13. For H15V, the abundance fitness was -0.369 ± 0.071. H15P gave an abundance fitness of -0.32 ± 0.092. Variant H15K has an abundance fitness of -0.363 ± 0.099. In the case of H15I, the abundance fitness is reported as -0.115 ± 0.081. Work on H15G yielded an abundance fitness of -0.068 ± 0.048. H15F gave an abundance fitness of -0.197 ± 0.088. Variant H15C has an abundance fitness of -0.435 ± 0.11. Variant H15Y has an abundance fitness of -0.085 ± 0.14. Variant H15L has an abundance fitness of -0.223 ± 0.062. Work on H15D yielded an abundance fitness of -0.211 ± 0.1. Variant H15E has an abundance fitness of -0.045 ± 0.085. For H15M, the abundance fitness was -0.325 ± 0.089. Variant H15N has an abundance fitness of -0.143 ± 0.077. H15T showed an abundance fitness of -0.356 ± 0.094. A11F showed an abundance fitness of -0.213 ± 0.1. Work on A11V yielded an abundance fitness of -0.289 ± 0.063. With A11L the abundance fitness was -0.311 ± 0.063. For A11N, the abundance fitness was -0.153 ± 0.099. In the case of A11T, the abundance fitness is reported as -0.321 ± 0.091. A11K showed an abundance fitness of -0.424 ± 0.077. In the case of A11D, the abundance fitness is reported as -0.241 ± 0.1. Variant A11E has an abundance fitness of -0.11 ± 0.063. A11Q showed an abundance fitness of -0.217 ± 0.078. For A11C, the abundance fitness was -0.177 ± 0.092. In the case of A11P, the abundance fitness is reported as -0.542 ± 0.14. With A11I the abundance fitness was -0.377 ± 0.14. Variant A11H has an abundance fitness of -0.691 ± 0.21. A11M gave an abundance fitness of -0.103 ± 0.064. Work on A11S yielded an abundance fitness of 0.067 ± 0.051. A11Y gave an abundance fitness of -0.128 ± 0.092. Variant A11R has an abundance fitness of -0.516 ± 0.067. A11G gave an abundance fitness of -0.013 ± 0.043. For I10M, the abundance fitness was -0.065 ± 0.054. With I10P the abundance fitness was 0.065 ± 0.072. I10V gave an abundance fitness of 0.242 ± 0.041. I10R gave an abundance fitness of -0.046 ± 0.044. For I10L, the abundance fitness was -0.139 ± 0.056. For I10A, the abundance fitness was 0.275 ± 0.046. Work on I10W yielded an abundance fitness of 0.074 ± 0.06. In the case of I10T, the abundance fitness is reported as 0.02 ± 0.062. In the case of I10K, the abundance fitness is reported as 0.037 ± 0.06. With I10D the abundance fitness was 0.195 ± 0.067. With I10N the abundance fitness was -0.393 ± 0.11. For I10F, the abundance fitness was 0.056 ± 0.091. Variant I10S has an abundance fitness of -0.033 ± 0.055. With I10C the abundance fitness was -0.058 ± 0.077. I10H gave an abundance fitness of -0.011 ± 0.084. For I10E, the abundance fitness was 0.045 ± 0.051. I10Y gave an abundance fitness of -0.029 ± 0.084. Work on V6N yielded an abundance fitness of -0.826 ± 0.2. V6Y gave an abundance fitness of -0.57 ± 0.16. With V6K the abundance fitness was -0.211 ± 0.074. For V6M, the abundance fitness was -1.01 ± 0.19. Variant V6L has an abundance fitness of -0.836 ± 0.11. Variant V6G has an abundance fitness of -0.768 ± 0.087. With V6C the abundance fitness was -0.684 ± 0.14. With V6W the abundance fitness was -0.751 ± 0.14. In the case of V6A, the abundance fitness is reported as -0.497 ± 0.078. V6D showed an abundance fitness of -0.934 ± 0.24. For V6E, the abundance fitness was -0.612 ± 0.091. For V6T, the abundance fitness was -0.51 ± 0.1. V6S gave an abundance fitness of -0.713 ± 0.1. V6P showed an abundance fitness of -0.978 ± 0.21. V6R gave an abundance fitness of -0.739 ± 0.08. Work on V6H yielded an abundance fitness of -1.18 ± 0.48. V6Q showed an abundance fitness of -0.781 ± 0.14. With G8L the abundance fitness was -0.091 ± 0.046. With G8D the abundance fitness was -0.096 ± 0.092. For G8Y, the abundance fitness was -0.132 ± 0.12. G8I gave an abundance fitness of -0.636 ± 0.3. Variant G8E has an abundance fitness of 0.006 ± 0.06. For G8S, the abundance fitness was -0.117 ± 0.052. In the case of G8V, the abundance fitness is reported as -1.11 ± 0.17. With G8H the abundance fitness was -0.102 ± 0.1. In the case of G8F, the abundance fitness is reported as -0.274 ± 0.15. G8M showed an abundance fitness of -0.201 ± 0.071. G8P gave an abundance fitness of -0.725 ± 0.16. In the case of G8N, the abundance fitness is reported as -0.758 ± 0.18. Variant G8T has an abundance fitness of -0.077 ± 0.061. In the case of G8Q, the abundance fitness is reported as 0.086 ± 0.058. In the case of G8W, the abundance fitness is reported as -0.374 ± 0.071. Variant G8C has an abundance fitness of -0.381 ± 0.1. For G8A, the abundance fitness was -0.101 ± 0.055. In the case of C4A, the abundance fitness is reported as -0.801 ± 0.11. In the case of C4M, the abundance fitness is reported as -0.72 ± 0.14. For C4P, the abundance fitness was -0.938 ± 0.19. C4R gave an abundance fitness of -0.792 ± 0.094. Work on C4E yielded an abundance fitness of -0.634 ± 0.12. For C4F, the abundance fitness was -1.09 ± 0.37. C4Q showed an abundance fitness of -0.759 ± 0.12. Work on C4L yielded an abundance fitness of -0.8 ± 0.11. In the case of C4S, the abundance fitness is reported as -0.824 ± 0.11. C4D gave an abundance fitness of -1.1 ± 0.32. C4Y showed an abundance fitness of -0.426 ± 0.2. Variant C4T has an abundance fitness of -0.79 ± 0.17. For C4I, the abundance fitness was -0.956 ± 0.3. In the case of C4W, the abundance fitness is reported as -0.934 ± 0.15. Variant C4H has an abundance fitness of -0.956 ± 0.29. In the case of C4G, the abundance fitness is reported as -0.696 ± 0.083. For C4K, the abundance fitness was -0.66 ± 0.13. In the case of C4V, the abundance fitness is reported as -0.917 ± 0.14.
